System: SMN
Experiment: SMN levels in mouse (ES-cell derived) motor neurons
Format: cell-based
Conditions: mouse motor neurons
Protocol: Mouse HB9-GFP derived SMN deficient motor neuron cells were incubated for 2 days with compounds from libraries and collections.
Motor neurons were produced from mouse ES-cells expressing cherry fluorescent protein (CFP) under the control of the motor neuron-selective Hb9 promoter, as previously described (Wichterle et al., 2002).
GFP expressing motor neurons were derived from mouse ES cells as described below. After growing for approximately 1 week, motor neurons were treated with allsterpaullone. Two days after treatment with allsterpaullone, cells were fixed and stained with SMN antibody or GFP antibody.
mES cells were differentiated into motor neurons according to methods adapted from Wichterle et. al., Cell (2002), 110:385-397. Briefly, mES cells were grown to 70-80% confluence in 10-cm plates (Falcon) in ES cell medium. To form embryoid bodies, cells were washed once with PBS to eliminate mES medium and then incubated with 1 ml of 0.25% trypsin (GIBCO) for 5-10 min at 21-25° C. (RT). Cells were then resuspended in 10 ml of DM1 medium (DMEM-F12, GIBCO), 10% knockout serum (GIBCO), penicillin, streptomycin, glutamine (GIBCO) and 2-mercaptoethanol (GIBCO), counted and plated at a concentration of 200,000 cells per ml in Petri dishes (Falcon). […] The cells were counted and plated on poly-ornithine coated 96-well plates (VWR).

B1: BMP4: bone morphogenetic protein 4, BMP/TGFβ ligand (protein, UniProt P12644 293-408, looked up)
Bone morphogenetic protein 4: SPKHHSQRARKKNKNCRRHSLYVDFSDVGWNDWIVAPPGYQAFYCHGDCPFPLADHLNSTNHAIVQTLVNSVNSSIPKACCVPTELSAISMLYLDEYDKVVLKNYQEMVVEGCGCR
- SMN levels in motor neurons (in words): increase SMN levels

— patent publication US20120010178A1, “METHODS AND COMPOUNDS FOR TREATMENT OF NEURODEGENERATIVE DISORDERS” (PRESIDENT AND FELLOWS OF HARVARD COLLEGE, priority 2008, published 2012)
